According to patent publication US20120231006A1 (Amgen, published 2012):

B1: mAb 5A1.1 (antibody, human IgG2)
heavy: QVQLVQSGAEVKKPGASVKVPCKASGYTFTDYYINWVRQAPGQGLEWMGWINPNNGGTNYAQKFQGRVTMTRDTSISTAYMELRRLRSDDTAVYYCARERGGYEDWFDPWGQGTLVTVSSASTKGPSVFPLAPCSRSTSESTAALGCLVKDYFPEPVTVSWNSGALTSGVHTFPAVLQSSGLYSLSSVVTVPSSNFGTQTYTCNVDHKPSNTKVDKTVERKCCVECPPCPAPPVAGPSVFLFPPKPKDTLMISRTPEVTCVVVDVSHEDPEVQFNWYVDGVEVHNAKTKPREEQFNSTFRVVSVLTVVHQDWLNGKEYKCKVSNKGLPAPIEKTISKTKGQPREPQVYTLPPSREEMTKNQVSLTCLVKGFYPSDIAVEWESNGQPENNYKTTPPMLDSDGSFFLYSKLTVDKSRWQQGNVFSCSVMHEALHNHYTQKSLSLSPGK
VL: QSVLTQPPSVSGAPGQRVTISCTGSSSNIGAGFDVHWYQQLPVTAPKLLIYGNRNRPSGVPARFSGSKSGTSASLAITGLQAEDEAVYYCQSYDSSLTVFGGGTKLTVL
notes: fully human, Campaign 2; lambda CL-1
B2: mAb 5B5.2 (antibody, human IgG2, lambda, V domains shown)
VH: QVQLVQSGAEVKKPGASVKVSCKASGYTFTDYYINWVRQAPGQGLEWMGWINPNSGGTDYAQKFQGRVTMTRDTSIRTAYMELNRLTSDDTAVYYCAREYGGYEDWFDPWGQGTLVTVSS
VL: QSVLTQPPSVSGAPGQRVTISCTGSNSNIGAGFDVHWYQQLPGTVPKLLIYGNNNRPSGVPDRFSGSKSGTSASLAITGLQAEDEADYYCQSYDSRLTVFGGGTKLTVLG
notes: fully human IgG2 lambda, Campaign 2; same chains as 5B5.1

Key:
[1] = biological target: T1, mOrai1-hOrai1 ECL2 (HSD) protein (human/mouse chimera, UniProt Q8BWG9 1-304 (mouse entry)); assay: FACS, 293EBNA, RFI-POC grade; set-up: concentration or dose not given beside the values
T1 construct: also called Ch
From the text: (§1) FIG. 16A-D illustrates the results of FACS analysis showing binding to the indicated mOrai1-hOrai1 ECL2 chimeric mutants expressed on the surface of HEK-293-EBNA cells. Transfected cells were stained first with recombinant monoclonal antibodies then counter-stained with a secondary phycoerythrin-labeled goat (“Gt”) anti-human (“Hu”) IgG F(ab′)₂ antibody fragment and visualized using FACS. In FIG. 16B and FIG. 16D, The values of Relative Fluorescence Intensity as Percent of Control (RFI-POC) are calculated from the relative fluorescence intensity geometric mean (Geo Mean). The geometric mean is an average calculated by multiplying a series of numbers and taking the nth root where n is the number of numbers in the series. It is a statistical average of a set of transformed numbers often used to represent a central tendency in a highly variable data set that minimizes the effects of extreme values.
(§2) Table 11A and Table 11B feature a schematic representation of the POC data from FIG. 16B and FIG. 16D, respectively, where the binding results are recorded as (+++) denoting binding POC from 40% to 100%, (++) for POC of 5% to less than 40%, (+) for POC from 1% to less than 5% and (−) as lack of binding with POC less than 1%.

[2] = biological target: T2, mOrai1-hOrai1 ECL2 (VIV) protein (human/mouse chimera, UniProt Q8BWG9 1-304 (mouse entry)); assay: FACS, 293EBNA, RFI-POC grade; set-up: concentration or dose not given beside the values
T2 construct: also called Ch
From the text: as §1, §2

[3] = biological target: T3, mOrai1-hOrai1 ECL2 chimeric protein (human/mouse chimera, UniProt Q8BWG9 1-304 (mouse entry)); assay: FACS, 293EBNA, RFI-POC grade; set-up: concentration or dose not given beside the values
T3 construct: mouse Orai1 with human ECL2; also called Ch
From the text: as §1, §2

rat Orai1 = biological target: T4, rat Orai1 (rat, UniProt Q5M848 1-304); assay: FACS, 293EBNA transfectants with STIM1, thapsigargin
T4 construct: co-expressed with rat STIM1; also called rOrai1
Procedure: (§3) FIG. 13A-B illustrates the results of FACS analysis showing binding to human Orai1 expressed on the surface of HEK-293-EBNA cells that were treated with 2 μM Thapsigargin. HEK-293-EBNA cells were transiently transfected with human Orai1 and human STIM1, mouse Orai1 and mouse STIM1, rat Orai1 and rat STIM1 and control empty vector. Transfected cells were stained first with recombinant monoclonal antibodies then counter-stained with a secondary phycoerythrin-labeled Gt anti-Hu IgG F(ab′)₂ or Gt anti-Mu IgG F(ab′)₂ antibody fragment, as appropriate, and visualized using FACS.
(§4) FACS binding analysis. Transfected 293EBNA cells transiently expressed hOrai1, human Orai2, or human Orai3 (results of binding comparison in FIG. 11A-B), or hOrai1(S218G) (results of binding comparison in FIG. 12A-B); or hOrai1 and hSTIM1; mOrai1 and mouse STIM1; or rat Orai1 and rat STIM1 (results of binding comparison in FIG. 13). The transfected cells were harvested at 48 hours post-transfection. Cells transfected with pcDNA3.1 were used as negative controls. Cells were washed once with ice-cold 1×PBS, resuspended in ice-cold FACS buffer (1×D-PBS+2% goat serum), and 2×10⁵ cells in […] were stained per antibody combination. All antibody incubation steps were performed on ice for 1 hour. […] Next, the unlabelled antibody was detected using goat F(ab′)₂ anti-mouse or anti-human IgG-phycoerythrin (IgG-PE), followed by a wash with 200 μL of ice-cold FACS buffer before flow cytometry analysis. Unstained cells and cells stained with detecting antibodies were used as negative controls. The values of relative level of fluorescence were calculated using FCS Express (De Novo Software) and mean values were calculated using log-transformed data (geometric mean). Purified mAbs were assessed by FACS assay for their ability to specifically bind human Orai1, Orai2 and Orai3 proteins expressed on HEK-293 cells.

mouse Orai1 = biological target: T5, mouse Orai1 (mouse, UniProt Q8BWG9 1-304); assay: as above
T5 construct: co-expressed with mouse STIM1; also called mOrai1
Procedure: as §3, §4

[4] = biological target: T6, hOrai1-mOrai1 ECL2 chimeric protein (human/mouse chimera, UniProt Q96D31 1-301); assay: FACS, 293EBNA transfectants
T6 construct: human Orai1 with mouse ECL2; also called Ch
From the text: FIG. 15A-B illustrates the results of FACS analysis showing binding to human Orai1 extracellular loop 2-mouse Orai1 mutant expressed on the surface of HEK-293-EBNA cells. HEK-293-EBNA cells were transiently transfected with mouse Orai1 mutant where human Orai1 extracellular loop 2 replaced the mouse Orai1 extracellular loop 2 and human Orai1 mutant where mouse Orai1 extracellular loop 2 replaced human extracellular loop 2. Transfected cells were stained first with recombinant monoclonal antibodies then counter-stained with a secondary phycoerythrin-labeled goat (“Gt”) anti-human (“Hu”) IgG F(ab′)₂ antibody fragment and visualized using FACS.
FACS binding analysis. Transfected 293EBNA cells transiently expressed hOrai1-mOrai1 ECL2 or mOrai1-hOrai1 ECL2 chimera. The transfected cells were harvested at 48 hours post-transfection. Cells transfected with pcDNA3.1 were used as negative controls. Cells were washed once with ice-cold 1×PBS, resuspended in ice-cold FACS buffer (1×D-PBS+2% goat serum), and 2×10⁵ cells in 100 μL were stained per antibody combination. All antibody incubation steps were performed on ice for 1 hour. […] Next, the unlabelled antibody was detected using goat F(ab′)₂ anti-mouse or anti-human IgG-phycoerythrin (IgG-PE), followed by a wash with 200 μL of ice-cold FACS buffer before flow cytometry analysis. Unstained cells and cells stained with detecting antibodies were used as negative controls. The values of relative level of fluorescence were calculated using FCS Express (De Novo Software) and mean values were calculated using log-transformed data (geometric mean). The results of the FACS analysis are shown in FIG. 15A-B, which supports the conclusion that the hOrai1 ECL2 domain is the region of hOrai1 where antibodies of the present invention bind.

human Orai3 = human Orai3 (human, UniProt Q9BRQ5 1-295); assay: FACS, 293EBNA transfectants
Procedure: (§5) Purified monoclonal antibodies from hybridoma supernantants of the subclones derived from initial hits were assessed for binding to human Orai1, Orai2 and Orai3 expressed on HEK-293-EBNA cells along with vector transfected control parental cells. Cells stained with or without primary mAbs were counter-stained with a secondary phycoerythrin-labeled goat (“Gt”) anti-human (“Hu”) IgG F(ab′)₂ antibody fragment and visualized using FACS.
as §4

human Orai2 = biological target: T7, human Orai2 (human, UniProt Q96SN7 1-254); assay: FACS, 293EBNA transfectants
T7 construct: also called hOrai2
Procedure: as §5, §4

human Orai1 = human Orai1 (human, UniProt Q96D31 1-301); assay: cell-based or functional assay
human Orai1, sequence (Q96D31 whole entry): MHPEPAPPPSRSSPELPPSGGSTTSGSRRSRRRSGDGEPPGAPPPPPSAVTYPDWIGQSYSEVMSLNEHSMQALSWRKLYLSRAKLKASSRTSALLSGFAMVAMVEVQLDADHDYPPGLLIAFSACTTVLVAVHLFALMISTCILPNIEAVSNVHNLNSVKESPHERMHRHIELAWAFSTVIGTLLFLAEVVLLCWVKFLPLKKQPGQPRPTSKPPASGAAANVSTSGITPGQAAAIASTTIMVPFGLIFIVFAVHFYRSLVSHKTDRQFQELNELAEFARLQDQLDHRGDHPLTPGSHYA

T5 sequence (Q8BWG9 whole entry): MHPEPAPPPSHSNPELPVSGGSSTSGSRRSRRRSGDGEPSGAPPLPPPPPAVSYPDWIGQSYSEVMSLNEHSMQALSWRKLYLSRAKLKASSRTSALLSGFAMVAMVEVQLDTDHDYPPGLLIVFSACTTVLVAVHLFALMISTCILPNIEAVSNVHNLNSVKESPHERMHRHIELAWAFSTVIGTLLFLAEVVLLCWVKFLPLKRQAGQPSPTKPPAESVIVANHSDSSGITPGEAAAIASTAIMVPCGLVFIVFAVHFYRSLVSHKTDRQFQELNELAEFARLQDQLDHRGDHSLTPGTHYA
T6 sequence (Q96D31 other isoform, or with tags, fused parts or gaps mutant): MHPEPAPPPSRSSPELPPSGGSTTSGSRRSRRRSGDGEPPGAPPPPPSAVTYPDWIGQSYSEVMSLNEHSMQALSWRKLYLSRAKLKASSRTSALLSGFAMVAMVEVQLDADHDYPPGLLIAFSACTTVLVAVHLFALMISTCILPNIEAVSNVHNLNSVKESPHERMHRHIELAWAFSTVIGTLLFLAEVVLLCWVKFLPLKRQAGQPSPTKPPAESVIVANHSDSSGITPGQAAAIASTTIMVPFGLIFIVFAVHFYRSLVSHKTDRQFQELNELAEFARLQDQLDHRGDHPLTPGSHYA
T3 sequence (Q8BWG9 other isoform, or with tags, fused parts or gaps mutant): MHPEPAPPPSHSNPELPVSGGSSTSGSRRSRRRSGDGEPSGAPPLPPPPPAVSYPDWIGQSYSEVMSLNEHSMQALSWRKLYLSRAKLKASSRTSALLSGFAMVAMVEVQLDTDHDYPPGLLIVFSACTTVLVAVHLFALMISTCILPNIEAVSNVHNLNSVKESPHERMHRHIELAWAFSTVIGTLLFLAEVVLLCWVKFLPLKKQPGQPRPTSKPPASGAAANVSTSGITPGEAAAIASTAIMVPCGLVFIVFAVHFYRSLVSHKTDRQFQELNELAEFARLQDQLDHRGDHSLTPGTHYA
T4 sequence (Q5M848 whole entry): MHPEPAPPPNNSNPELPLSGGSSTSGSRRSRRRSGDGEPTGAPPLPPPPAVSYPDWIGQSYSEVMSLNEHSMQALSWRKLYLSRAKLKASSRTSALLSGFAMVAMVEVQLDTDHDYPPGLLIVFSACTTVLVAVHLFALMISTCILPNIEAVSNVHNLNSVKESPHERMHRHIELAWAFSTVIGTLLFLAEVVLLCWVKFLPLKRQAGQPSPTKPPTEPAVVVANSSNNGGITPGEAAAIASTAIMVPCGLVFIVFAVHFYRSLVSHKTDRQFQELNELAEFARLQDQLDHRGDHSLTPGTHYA
T2 sequence (Q8BWG9 other isoform, or with tags, fused parts or gaps): as the sequence (Q8BWG9 other isoform, or with tags, fused parts or gaps mutant) above, with G221V, A222I, A223V counted along it
T7 sequence (Q96SN7 whole entry): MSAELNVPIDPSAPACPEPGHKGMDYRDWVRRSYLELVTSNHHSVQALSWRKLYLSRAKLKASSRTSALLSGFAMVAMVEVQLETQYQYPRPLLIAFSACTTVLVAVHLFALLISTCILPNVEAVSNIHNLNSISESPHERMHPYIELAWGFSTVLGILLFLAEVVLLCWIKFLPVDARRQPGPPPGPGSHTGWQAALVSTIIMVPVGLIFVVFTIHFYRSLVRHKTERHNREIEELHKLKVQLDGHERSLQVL
T1 sequence (Q8BWG9 other isoform, or with tags, fused parts or gaps): as the sequence (Q8BWG9 other isoform, or with tags, fused parts or gaps mutant) above, with V226H, T228D counted along it

Binder	POC (percent of control, FACS Geo Mean relative to binding to Ch. 1) [1] [%]	POC (percent of control, FACS Geo Mean relative to binding to Ch. 1) [2] [%]	POC (percent of control, FACS Geo Mean relative to binding to Ch. 1) [3] [%]	binding result (rat Orai1)	binding result (mouse Orai1)	binding result [4]	binding result (human Orai3)	binding result (human Orai2)	IC50 IFN-γ, whole blood Donor A (human Orai1) [nM]	IC50 IFN-γ, whole blood Donor B (human Orai1) [nM]	IC50 IL-2, whole blood Donor A (human Orai1) [nM]	IC50 IL-2, whole blood Donor B (human Orai1) [nM]
B1	40 to 100	40 to 100	40 to 100	no binding (tested: 1 µg)	no binding (tested: 1 µg)	no binding (tested: 1 µg)	no binding (tested: 1 µg)	no binding (tested: 1 µg)	8.15	1.66	11.2	5.59
B2	40 to 100	40 to 100	40 to 100	no binding (tested: 1 µg)	no binding (tested: 1 µg)	no binding (tested: 1 µg)	no binding (tested: 1 µg)	no binding (tested: 1 µg)	–	6.58	1.39	3.1
